Measured values: patent US20200023070A1, “CONJUGATES COMPRISING AN GLP-1/GLUCAGON/GIP TRIPLE RECEPTOR AGONIST, A LINKER AND HYALURONIC ACID” (SANOFI, priority 2018, published 2020)
Starred links: 1 amine or outer side, 2 acyl side, 3 side chain; linkers in the order of their positions; H or OH if unused. Non-standard residues stand in square brackets, D forms with d. Groups on a side chain read outwards from the residue. No end group written: not given here. *: point of attachment. γGlu = O=C(O)[C@H](CCC(=O)[*:2])N[*:1]; Palmitoyl = CCCCCCCCCCCCCCCC(=O)*; Aib = CC(C)(N)C(=O)O

Tests used:
[1] = test system: female diet-induced obese (DIO) C57BL/6N mice; assay: Body mass after subcutaneous treatment in female diet-induced obese mice; assay type: in vivo, mouse; details: for mean body weight reduction by day 23 versus the body weight at day 0: days 1, 8, 15, 22, female DIO mice
Experimental: Female C57BL/6N Cr1 mice were used for this study.
Mice were group housed under vivarium conditions that included a 12 h light/dark cycle, room temperatures—of 23±1° C. and a relative humidity between 30-70%. All animals had free access to water and diet (Ssniff adjusted high fat diet: TD.97366) for 18 weeks prior to pharmacological intervention (dosing phase). After pre-feeding period, mice were stratified for body weight to treatment groups with n=8, so that each group has similar mean body weight. At the study start mice were between 25-26 weeks old.
Mice were treated in the morning on days 1, 8, 15 and 22 between 8:00 and 9:00 AM with a s.c. injection of cross-linked hyaluronic acid (“vehicle”) or 100 and 200 nmol/kg/week conjugate (based on peptide content) of SEQ ID NO: 7 using a 30 G needle.
Body weight and food consumption were measured daily throughout the dosing phase. The study was terminated on day 23.
For statistical analyses a One-Way Analysis of Variance (ANOVA) was performed with SigmaStat 3.5. The power of the performed test was alpha=0.050:0.999 and a comparison versus the high fat diet-Vehicle group was performed with Dunnett's Method.

[2] = Pharmacokinetics in female SD rats; assay type: in vivo, Sprague-Dawley rats
Experimental: 5 female Sprague-Dawley rats were used in this study. Animals had access to food and water ad libitum throughout the entire study period. The animals were dosed with 1.01 mg/kg (peptide content) of a suspension of the conjugate of Seq ID. No.7. Plasma samples were taken at 4, 24, 48, 72, 144, 192, 240 and 336 h. Samples were analysed for the peptide. All quantitative results were determined by LC-MS/MS. For calculation of mean concentrations, values below the lower limit of quantification (LLOQ=2.5 ng/mL in plasma) were set to zero. The pharmacokinetic parameters were calculated by the program WinNonlin 6.4 using a non-compartmental model and linear trapezoidal interpolation calculation.

[3] = Pharmacokinetics in female Göttingen minipigs; assay type: in vivo; details: for half-life in plasma: after subcutaneous administration
Experimental: 6 female Göttingen minipigs of average 30000 g weight were used in this study.
Animals had access to food and water ad libitum throughout the entire study period. The animals were dosed with 0.23 mg/kg of a 17.6% suspension of HA-Aib-linker-Seq ID. No.7. Plasma samples were taken at 0, 1, 4, 8, 24, 48, 72, 96, 144, 192, 264, 312, 360, 432, 480 and 528 h. Samples were analysed for the peptide. All quantitative results were determined by LC-MS/MS. For calculation of mean concentrations, values below the lower limit of quantification (LLOQ=0.5 ng/mL in plasma) were set to zero. The pharmacokinetic parameters were calculated by the program WinNonlin 6.4 using a non-compartmental model and linear trapezoidal interpolation calculation.

[4] = Injectability study (load on pre-filled syringe); assay type: physicochemical; details: 20 mg/mL suspension, 13.5% peptide load, 1 mL BD Neopak PFS, needle 27G×½″ TW, 3.2 mm/s
Experimental: A suspension of HA-peptide conjugate with Seq. ID No. 7 (20 mg/mL in 20 mM acetate buffer, 7.6 mg/mL NaCl, 4 mg/mL soluble (non crosslinked) hyaluronic acid 700 kD, pH 4.8) was manually filled into 1 mL long BD Neopak glass pre-filled syringes (PFS), 600 μL each, and afterwards closed via vacuum stoppering. The filled PFS were loaded into the syringe holder of the equipment and the injection speed was adjusted to […] which equals 3.2 mm/s for the BD Neopak PFS.

[5] = target: human GLP-1 receptor (human, UniProt P43220 24-463); assay: cell-based or functional assay
[6] = target: human glucagon receptor (human, UniProt P47871 26-477); assay: cell-based or functional assay
[7] = target: T1, human GIP receptor (human, UniProt P48546 22-466); assay: cell-based or functional assay
T1 sequence (looked up): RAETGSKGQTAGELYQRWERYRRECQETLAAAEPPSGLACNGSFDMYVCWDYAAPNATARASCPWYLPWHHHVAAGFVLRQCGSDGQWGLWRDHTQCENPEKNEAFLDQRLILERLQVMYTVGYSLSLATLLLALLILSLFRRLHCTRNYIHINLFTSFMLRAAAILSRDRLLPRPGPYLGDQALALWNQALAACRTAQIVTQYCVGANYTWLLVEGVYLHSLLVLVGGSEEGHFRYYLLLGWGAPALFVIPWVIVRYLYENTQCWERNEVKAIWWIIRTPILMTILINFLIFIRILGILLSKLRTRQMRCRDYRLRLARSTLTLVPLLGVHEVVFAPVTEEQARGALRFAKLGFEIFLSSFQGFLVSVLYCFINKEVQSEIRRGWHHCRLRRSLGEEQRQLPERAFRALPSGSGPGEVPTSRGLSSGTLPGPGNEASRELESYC

[8] = peptide Seq. No. 7 in plasma, single s.c. 1.01 mg/kg (peptide content) conjugate suspension
[9] = peptide Seq. NO: 7 in plasma, single s.c. 0.23 mg/kg of 17.6% conjugate (0.04 mg/kg peptide)

Sequence of human glucagon receptor (P47871 26-477): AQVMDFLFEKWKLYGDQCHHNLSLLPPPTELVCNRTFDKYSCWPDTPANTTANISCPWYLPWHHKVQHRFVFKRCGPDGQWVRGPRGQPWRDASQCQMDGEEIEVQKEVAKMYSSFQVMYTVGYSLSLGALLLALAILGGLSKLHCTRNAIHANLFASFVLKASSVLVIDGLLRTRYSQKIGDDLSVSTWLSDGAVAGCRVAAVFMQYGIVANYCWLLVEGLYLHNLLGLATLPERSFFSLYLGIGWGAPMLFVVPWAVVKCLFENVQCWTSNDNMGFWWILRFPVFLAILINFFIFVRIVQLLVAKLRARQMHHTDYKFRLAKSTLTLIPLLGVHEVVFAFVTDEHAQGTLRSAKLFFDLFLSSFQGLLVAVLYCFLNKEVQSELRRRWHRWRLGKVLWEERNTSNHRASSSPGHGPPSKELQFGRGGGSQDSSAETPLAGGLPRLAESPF

Molecule: conjugate of SEQ ID NO: 7: Divinylsulfone-crosslinked hyaluronic acid hydrogel carrying peptide Seq. ID No. 7 via Aib-linker (thiol-maleimide conjugation) (H[Aib]HGTFTSDLSKLK([γGlu-γGlu-Palmitoyl])EEQRQ[Aib]EFIEWLKA[dA]GPPS[Aib]KPPPK-NH2; also: conjugated to divinylsulfone-crosslinked hyaluronic acid hydrogel via Aib-linker (thiol-maleimide), site not given here)
- mean body weight reduction by day 23 versus the body weight at day 0 ([1]; 100 nmol/kg/w s.c. (based on peptide content)): ~17.7±1.3%
- mean body weight reduction by day 23 versus the body weight at day 0 ([1]; 200 nmol/kg/w s.c. (based on peptide content)): ~19.5±1.4%
- body weight effect of the first administration ([1]; both doses (100 and 200 nmol/kg/week s.c.), p<0.05 vs high-fat diet vehicle): significant body weight-reducing effect that lasted until day 8
- half-life in plasma ([2]; after subcutaneous administration, 1.01 mg/kg (peptide content)): around 3 days
- AUClast [2, 8]: 1810 ng·h/mL
- Cmax [2, 8]: 14.0 ng/mL
- tlast [2, 8]: 221 h
- tmax [2, 8]: 48.0 h
- half-life in plasma [3]: around 139 h
- half-life in plasma ([3]; same value as in h): 139 h
- AUClast [3, 9]: 897 ng·h/mL
- Cmax [3, 9]: 4.96 ng/mL
- tlast [3, 9]: 344 h
- tmax [3, 9]: 100 h
- average load [4]: 6.5 N
- maximum load [4]: 7.6 N

B1: Peptide of SEQ ID NO: 6 (GLP-1/Glucagon/GIP triple receptor agonist, exendin-4 derivative) (peptide)
peptide: H[Aib]HGTFTSDLSKLK([γGlu-γGlu-Palmitoyl])EEQRQKEFIEWLKAGGHPS[Aib]KPPPK-NH2
modifications: N-terminus assumed
SMILES: CCCCCCCCCCCCCCCC(=O)N[C@@H](CCC(=O)N[C@@H](CCC(=O)NCCCC[C@H](NC(=O)[C@H](CC(C)C)NC(=O)[C@H](CCCCN)NC(=O)[C@H](CO)NC(=O)[C@H](CC(C)C)NC(=O)[C@H](CC(=O)O)NC(=O)[C@H](CO)NC(=O)[C@@H](NC(=O)[C@H](Cc1ccccc1)NC(=O)[C@@H](NC(=O)CNC(=O)[C@H](Cc1c[nH]cn1)NC(=O)C(C)(C)NC(=O)[C@@H](N)Cc1c[nH]cn1)[C@@H](C)O)[C@@H](C)O)C(=O)N[C@@H](CCC(=O)O)C(=O)N[C@@H](CCC(=O)O)C(=O)N[C@@H](CCC(N)=O)C(=O)N[C@@H](CCCNC(=N)N)C(=O)N[C@@H](CCC(N)=O)C(=O)N[C@@H](CCCCN)C(=O)N[C@@H](CCC(=O)O)C(=O)N[C@@H](Cc1ccccc1)C(=O)N[C@H](C(=O)N[C@@H](CCC(=O)O)C(=O)N[C@@H](Cc1c[nH]c2ccccc12)C(=O)N[C@@H](CC(C)C)C(=O)N[C@@H](CCCCN)C(=O)N[C@@H](C)C(=O)NCC(=O)NCC(=O)N[C@@H](Cc1c[nH]cn1)C(=O)N1CCC[C@H]1C(=O)N[C@@H](CO)C(=O)NC(C)(C)C(=O)N[C@@H](CCCCN)C(=O)N1CCC[C@H]1C(=O)N1CCC[C@H]1C(=O)N1CCC[C@H]1C(=O)N[C@@H](CCCCN)C(N)=O)[C@@H](C)CC)C(=O)O)C(=O)O
- EC50 hGLP-1R (cAMP response, HTRF, HEK-293 cells) [5]: 1.4 pM
- EC50 hGlucagon R (cAMP response, HTRF, HEK-293 cells) [6]: 2.3 pM
- EC50 hGlP R (cAMP response, HTRF, HEK-293 cells) [7]: 2.1 pM

B2: Peptide of SEQ ID NO: 7 (GLP-1/Glucagon/GIP triple receptor agonist, exendin-4 derivative) (peptide)
peptide: H[Aib]HGTFTSDLSKLK([γGlu-γGlu-Palmitoyl])EEQRQ[Aib]EFIEWLKA[dA]GPPS[Aib]KPPPK-NH2
modifications: N-terminus assumed
SMILES: CCCCCCCCCCCCCCCC(=O)N[C@@H](CCC(=O)N[C@@H](CCC(=O)NCCCC[C@H](NC(=O)[C@H](CC(C)C)NC(=O)[C@H](CCCCN)NC(=O)[C@H](CO)NC(=O)[C@H](CC(C)C)NC(=O)[C@H](CC(=O)O)NC(=O)[C@H](CO)NC(=O)[C@@H](NC(=O)[C@H](Cc1ccccc1)NC(=O)[C@@H](NC(=O)CNC(=O)[C@H](Cc1c[nH]cn1)NC(=O)C(C)(C)NC(=O)[C@@H](N)Cc1c[nH]cn1)[C@@H](C)O)[C@@H](C)O)C(=O)N[C@@H](CCC(=O)O)C(=O)N[C@@H](CCC(=O)O)C(=O)N[C@@H](CCC(N)=O)C(=O)N[C@@H](CCCNC(=N)N)C(=O)N[C@@H](CCC(N)=O)C(=O)NC(C)(C)C(=O)N[C@@H](CCC(=O)O)C(=O)N[C@@H](Cc1ccccc1)C(=O)N[C@H](C(=O)N[C@@H](CCC(=O)O)C(=O)N[C@@H](Cc1c[nH]c2ccccc12)C(=O)N[C@@H](CC(C)C)C(=O)N[C@@H](CCCCN)C(=O)N[C@@H](C)C(=O)N[C@H](C)C(=O)NCC(=O)N1CCC[C@H]1C(=O)N1CCC[C@H]1C(=O)N[C@@H](CO)C(=O)NC(C)(C)C(=O)N[C@@H](CCCCN)C(=O)N1CCC[C@H]1C(=O)N1CCC[C@H]1C(=O)N1CCC[C@H]1C(=O)N[C@@H](CCCCN)C(N)=O)[C@@H](C)CC)C(=O)O)C(=O)O
- EC50 hGLP-1R (cAMP response, HTRF, HEK-293 cells) [5]: 2.9 pM
- EC50 hGlucagon R (cAMP response, HTRF, HEK-293 cells) [6]: 2.1 pM
- EC50 hGlP R (cAMP response, HTRF, HEK-293 cells) [7]: 1.5 pM
